In patent US20140235820A1, “METHODS AND COMPOSITIONS FOR MODULATING THE Wnt PATHWAY” (Genentech, Inc., priority 2010, published 2014):

Legend:
[1] = target: T1, Wnt9b binding to LRP6 E1E4 (Homo sapiens, UniProt O75581); assay: Wnt9b binding to LRP6 E1E4 in presence of inhibitor; settings: inhibitor 125 nM, Wnt 125 nM
T1 construct: construct E1E4-amino acids A20-Q1253 of LPR6; made in house; host or cells: Tni insect cells (baculovirus, secreted)
T1 sequence (O75581 20-1253): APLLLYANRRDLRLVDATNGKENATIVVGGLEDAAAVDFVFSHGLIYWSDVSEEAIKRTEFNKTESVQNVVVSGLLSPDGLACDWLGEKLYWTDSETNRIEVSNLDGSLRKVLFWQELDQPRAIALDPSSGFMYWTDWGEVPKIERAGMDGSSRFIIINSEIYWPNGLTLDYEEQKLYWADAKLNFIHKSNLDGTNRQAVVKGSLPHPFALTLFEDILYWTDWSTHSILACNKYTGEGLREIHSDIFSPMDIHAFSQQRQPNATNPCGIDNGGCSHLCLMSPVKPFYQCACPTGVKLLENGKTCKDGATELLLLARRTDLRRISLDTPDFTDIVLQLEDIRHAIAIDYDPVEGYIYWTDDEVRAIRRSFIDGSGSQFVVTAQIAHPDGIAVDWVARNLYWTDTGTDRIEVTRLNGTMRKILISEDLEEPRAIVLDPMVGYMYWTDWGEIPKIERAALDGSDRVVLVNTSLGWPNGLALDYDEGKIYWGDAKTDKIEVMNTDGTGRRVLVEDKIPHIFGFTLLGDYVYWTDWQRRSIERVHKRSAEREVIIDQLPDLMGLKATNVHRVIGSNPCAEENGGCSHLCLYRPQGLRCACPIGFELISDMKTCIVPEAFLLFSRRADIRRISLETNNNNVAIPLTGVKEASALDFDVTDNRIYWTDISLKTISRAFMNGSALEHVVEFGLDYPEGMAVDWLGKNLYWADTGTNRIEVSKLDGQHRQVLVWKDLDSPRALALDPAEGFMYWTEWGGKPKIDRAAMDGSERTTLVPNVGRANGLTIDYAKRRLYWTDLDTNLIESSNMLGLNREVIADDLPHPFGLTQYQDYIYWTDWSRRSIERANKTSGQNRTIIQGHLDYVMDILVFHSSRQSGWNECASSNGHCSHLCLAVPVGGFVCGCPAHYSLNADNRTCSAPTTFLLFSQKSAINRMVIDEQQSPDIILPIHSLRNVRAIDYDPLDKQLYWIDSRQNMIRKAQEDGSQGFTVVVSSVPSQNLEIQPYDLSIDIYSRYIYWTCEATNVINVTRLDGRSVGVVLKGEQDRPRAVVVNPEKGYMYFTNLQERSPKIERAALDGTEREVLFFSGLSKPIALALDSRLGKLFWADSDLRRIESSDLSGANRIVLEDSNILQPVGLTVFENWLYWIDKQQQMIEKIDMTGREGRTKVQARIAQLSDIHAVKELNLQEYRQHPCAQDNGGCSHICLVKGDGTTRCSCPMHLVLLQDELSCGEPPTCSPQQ
Description: (§1) FIG. 11. Wnt binding to LRP6 E1E4 in the presence or absence of Dkk1 or sclerostin.
(§2) Binding kinetics were measured by biolayer interferometry using an Octet Red instrument (ForteBio) as previously described (11). Streptavidin (SA) biosensors were loaded with biotinylated hLRP6 in 50 mMTris, pH 8, 300 mM NaCl, 5% (v/v) glycerol, and 0.05% (w/v) Triton X-100. The loaded biosensors were washed in the same buffer before carrying out association and dissociation measurements for the indicated times. The Kd of each interaction was determined using steady state-analysis through the Octet Red software v6.3. Each reported value represents an average of three or more experiments at different concentrations, with a fitted experimental curve for which the square of the correlation coefficient (R^2) is above 0.96.
(§3) Wnt9b also binds to the E1E2 region but not to the E3E4 region (11). Accordingly, sclerostin inhibits Wnt9b binding to LRP6 E1E4 (FIG. 11). […] Accordingly, Dkk1 inhibits the binding of both Wnt3a and Wnt9b to LRP6 E1E4 (FIG. 11).

[2] = target: T2, Wnt3a binding to LRP6 E1E4 (Homo sapiens, UniProt O75581); assay: Wnt3a binding to LRP6 E1E4 in presence of inhibitor; settings: inhibitor 125 nM, Wnt 125 nM
T2 construct: construct E1E4-amino acids A20-Q1253 of LPR6; made in house; host or cells: Tni insect cells (baculovirus, secreted)
T2 sequence (O75581 20-1253): T1 sequence (O75581 20-1253)
Description: as §1, §2, §3

LRP6 E2 = target: T3, LRP6 E2 (Homo sapiens, UniProt O75581); assay: Biolayer interferometry binding to LRP6 E2
T3 construct: construct E2-amino acids D235-E631 of LPR6; made in house; host or cells: Tni insect cells (baculovirus, secreted)
T3 sequence (O75581 325-631 limits assumed): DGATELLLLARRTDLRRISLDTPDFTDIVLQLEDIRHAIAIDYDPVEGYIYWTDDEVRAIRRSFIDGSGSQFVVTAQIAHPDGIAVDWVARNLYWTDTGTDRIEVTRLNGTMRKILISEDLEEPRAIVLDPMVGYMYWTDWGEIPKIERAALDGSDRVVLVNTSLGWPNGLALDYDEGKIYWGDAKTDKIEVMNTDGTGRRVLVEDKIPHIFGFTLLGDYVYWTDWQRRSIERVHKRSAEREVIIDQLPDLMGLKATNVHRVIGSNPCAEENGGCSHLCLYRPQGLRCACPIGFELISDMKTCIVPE
Description: as §2
(§4) The interaction of the different Dkks and sclerostin with various domains of LRP6 was measured using a biolayer interferometry assay (11). Purified receptors contained individual β-propeller-EGF-like units (E1, E2, or E4), two β-propellers (E1E2 or E3E4), or four β-propellers (E1E4))—as follows:
(§5) Human LRP6: construct E1E4-amino acids A20-Q1253 of LPR6; construct E1E2-amino acids A20-E631 of LPR6; construct E3E4 amino acids E631-Q1253 of LPR6; construct E1-amino acids A20-D325 of LPR6; construct E2-amino acids […]-E631 of LPR6; construct E4-T933-Q1253. The individual LRP6 β-propeller E3 could not be expressed.

LRP6 E1 = target: T4, LRP6 E1 (Homo sapiens, UniProt O75581); assay: Biolayer interferometry binding to LRP6 E1
T4 construct: construct E1-amino acids A20-D325 of LPR6; made in house; host or cells: Tni insect cells (baculovirus, secreted)
T4 sequence (O75581 20-325): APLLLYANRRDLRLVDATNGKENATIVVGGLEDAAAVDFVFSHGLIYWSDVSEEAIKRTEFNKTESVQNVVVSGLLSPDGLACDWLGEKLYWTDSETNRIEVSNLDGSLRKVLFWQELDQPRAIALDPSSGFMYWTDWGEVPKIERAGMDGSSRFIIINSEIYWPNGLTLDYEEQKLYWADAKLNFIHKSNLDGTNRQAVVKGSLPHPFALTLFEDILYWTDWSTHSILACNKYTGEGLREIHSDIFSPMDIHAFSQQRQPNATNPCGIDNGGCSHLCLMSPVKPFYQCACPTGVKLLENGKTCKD
Description: as §2, §4, §5

Row | inhibition of Wnt9b binding to LRP6 E1E4 [1] | inhibition of Wnt3a binding to LRP6 E1E4 [2] | binding to LRP6 E2 (in words) (LRP6 E2) | binding to LRP6 E1 (in words) (LRP6 E1) | Substance
1 | inhibits | unable to inhibit | very weak or non-specific binding | binds | sclerostin: Sclerostin protein, Wnt pathway inhibitor, expressed in insect cells (LPNAIGR)
2 | inhibits | inhibits | Partial binding | bind with high affinity | Dkk1: Dickkopf 1 protein, Wnt pathway inhibitor, expressed in insect cells (NSNAIKN)
